The values that follow come from paper PMC2779590.

In this assay the target is stable 100 kDa N-terminal fragment of CagA (Helicobacter pylori (strain not stated)) (UniProt P55980). The assay can be described thus: SPR.
Chain of stable 100 kDa N-terminal fragment of CagA (Helicobacter pylori (strain not stated)) (P55980 1-885 limits assumed): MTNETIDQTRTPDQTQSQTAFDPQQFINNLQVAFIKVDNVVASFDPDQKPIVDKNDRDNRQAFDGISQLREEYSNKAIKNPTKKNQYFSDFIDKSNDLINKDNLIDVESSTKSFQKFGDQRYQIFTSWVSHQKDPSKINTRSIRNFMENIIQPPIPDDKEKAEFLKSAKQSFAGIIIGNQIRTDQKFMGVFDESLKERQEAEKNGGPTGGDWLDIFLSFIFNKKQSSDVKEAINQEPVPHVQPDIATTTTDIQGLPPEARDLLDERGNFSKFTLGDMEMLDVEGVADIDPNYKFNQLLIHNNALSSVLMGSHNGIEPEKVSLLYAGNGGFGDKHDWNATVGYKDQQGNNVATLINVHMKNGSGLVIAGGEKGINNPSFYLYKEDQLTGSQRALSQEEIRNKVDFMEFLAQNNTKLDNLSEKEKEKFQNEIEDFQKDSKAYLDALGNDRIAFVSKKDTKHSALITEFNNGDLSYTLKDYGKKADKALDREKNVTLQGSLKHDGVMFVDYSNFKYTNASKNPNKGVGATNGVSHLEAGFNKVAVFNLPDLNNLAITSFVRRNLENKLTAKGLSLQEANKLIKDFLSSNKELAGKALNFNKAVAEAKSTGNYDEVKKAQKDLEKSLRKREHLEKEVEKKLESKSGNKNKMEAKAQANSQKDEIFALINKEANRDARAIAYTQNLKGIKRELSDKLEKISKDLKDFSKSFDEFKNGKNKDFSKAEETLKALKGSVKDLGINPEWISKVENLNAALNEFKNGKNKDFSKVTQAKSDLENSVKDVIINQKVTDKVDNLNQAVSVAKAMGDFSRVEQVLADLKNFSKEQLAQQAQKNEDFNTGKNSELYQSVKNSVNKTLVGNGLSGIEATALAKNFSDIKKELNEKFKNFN

“purified human α5β1 integrin (from placenta) (from UniProt P05556 21-798) (complex)” returned a Kd of 0.153 nM. In turn, “purified human αVβ3 integrin (from placenta) (from UniProt P05106 27-788) (complex)” returned a dissociation constant Kd of 33.4 nM.
